Data published in article PMC4933465.

Key:
[1] = biological target: Link_TSG6 (recombinant Link module from human TSG-6) (human) (UniProt P98066); assay: SPR; Link_TSG6 amine-coupled to a C1 chip (800–1000 RU), chemokine as analyte; BIAcore 3000; 10 mM HEPES, 150 mM NaCl, 0.05% Tween 20, pH 7.4; 40 μl/min; 1:1 Langmuir model; apparent affinities
Biotinylated CCL21 = Biotinylated CCL21 (UniProt O00585)
CCL2 = CCL2 (UniProt P13500)
CCL7 = CCL7 (UniProt P80098)
CCL7, sequence (P80098 24-99): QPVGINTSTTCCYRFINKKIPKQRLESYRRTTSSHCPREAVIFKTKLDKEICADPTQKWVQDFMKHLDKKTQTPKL

Link_TSG6 (recombinant Link module from human TSG-6) (human), sequence (P98066 36-133): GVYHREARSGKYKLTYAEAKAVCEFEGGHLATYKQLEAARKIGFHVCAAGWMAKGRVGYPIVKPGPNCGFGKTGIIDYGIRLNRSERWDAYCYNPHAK
Link_TSG6 (recombinant Link module from human TSG-6), sequence (P98066 36-133): as above
CCL2, sequence (P13500 24-99): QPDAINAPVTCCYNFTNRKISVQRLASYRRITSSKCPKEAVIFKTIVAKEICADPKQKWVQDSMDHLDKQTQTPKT
Biotinylated CCL21, sequence (O00585 24-134): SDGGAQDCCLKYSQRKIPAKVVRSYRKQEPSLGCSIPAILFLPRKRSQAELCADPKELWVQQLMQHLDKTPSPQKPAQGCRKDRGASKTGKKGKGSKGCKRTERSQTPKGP

Kd [1] [nM]	koff [1] [s⁻¹]	kon [1] [M⁻¹ s⁻¹]	accumulation of biotinylated CCL21 (50 nM) on EaHY926 endothelial cells after pre-incubation with Link TSG6 at a 1:1 molar ratio (% of chemokine alone) (Biotinylated CCL21)	accumulation of biotinylated CXCL4 (10 nM) on EaHY926 endothelial cells after pre-incubation with a 5-fold molar excess of Link TSG6 (% of chemokine alone) (Biotinylated CXCL4)	accumulation of CCL2 (50 nM) on EaHY926 endothelial cells after pre-incubation with Link TSG6 at 1:1 to 5:1 molar ratio (∼75 to ∼55% of chemokine alone) (% of chemokine alone) (CCL2)	accumulation of CCL7 (50 nM) on EaHY926 endothelial cells after pre-incubation with Link TSG6 at a 1:1 molar ratio (% of chemokine alone) (CCL7)	Substance
3.9	0.0014	360000					CXCL4 (ligand)
			50	51	75	50	Link_TSG6 (recombinant Link module from human TSG-6) (from UniProt P98066 36-133) (domain or fragment)
